Results on 14 molecules are retold here after patent US20060067951A1 (GOVERNING COUNCIL OF THE UNIVERSITY OF TORONTO, published 2006).

To fix the notation:
T1: S. mutans ComD histidine kinase receptor (Streptococcus mutans)
T1 chain: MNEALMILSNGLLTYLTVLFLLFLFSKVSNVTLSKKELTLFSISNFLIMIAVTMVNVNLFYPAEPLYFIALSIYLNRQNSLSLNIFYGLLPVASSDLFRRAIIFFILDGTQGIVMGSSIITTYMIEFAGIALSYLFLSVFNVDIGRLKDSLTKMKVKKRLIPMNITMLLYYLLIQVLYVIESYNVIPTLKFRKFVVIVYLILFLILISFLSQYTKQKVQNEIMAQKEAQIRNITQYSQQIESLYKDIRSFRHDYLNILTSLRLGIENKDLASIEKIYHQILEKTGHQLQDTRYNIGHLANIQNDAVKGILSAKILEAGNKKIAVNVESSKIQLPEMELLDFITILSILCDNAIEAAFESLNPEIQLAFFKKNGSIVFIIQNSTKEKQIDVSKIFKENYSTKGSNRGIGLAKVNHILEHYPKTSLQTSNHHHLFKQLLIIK

The experiment has as its target T1, S. mutans ComD histidine kinase receptor. Briefly: cell-based or functional assay.
As to SGSLSTFFALFNRSFTQALGK [CSP peptide analog C2], the “Transformation efficiency (vs 5 µg CSP), 5 µg/ml peptide, S. mutans wild-type UA159” value (“Transformation efficiency (vs 5 µg CSP)” below) was 48 fold decrease and the “Transformation efficiency (vs no CSP), 5 µg/ml peptide, S. mutans wild-type UA159” value (“Transformation efficiency (vs no CSP)” for short) amounted to 32 fold increase.

As for SGSLSTFFVLFNRSFTQALGK [CSP peptide analog B2], the “Transformation efficiency (vs 5 µg CSP)” value was found to be 414 fold decrease and the “Transformation efficiency (vs no CSP)” value came to 4 fold increase.

Turning to SGSLSTFFRLFNASFTQALGK [CSP peptide analog E2], the “Transformation efficiency (vs 5 µg CSP)” value was 6 fold decrease and the “Transformation efficiency (vs no CSP)” value worked out at 252 fold increase.

Turning to SGTLSTFFRLFNRSFTQA [CSP peptide analog B3], the “Transformation efficiency (vs 5 µg CSP)” value came to 8 fold decrease and the “Transformation efficiency (vs no CSP)” value was determined as 195 fold increase.

For the molecule SGSLSTFFRLFNRSFTQALGV [CSP peptide analog F2], the “Transformation efficiency (vs 5 µg CSP)” value stood at 3 fold decrease and the “Transformation efficiency (vs no CSP)” value is 543 fold increase.

On to SGSLSTFFRLFNRSFTQALGK [mature wild-type S. mutans competence stimulating peptide (CSP)], for which the “Transformation efficiency (vs no CSP)” value is 1550 fold increase.

In the case of SGSLSTFFRLFNRSFTQLGK [CSP peptide analog H1], the “Transformation efficiency (vs 5 µg CSP)” value was 28000 fold decrease and the “Transformation efficiency (vs no CSP)” value came out at 18 fold decrease.

As for SGSLSTFFRLFNVSFTQALGK [CSP peptide analog D2], the “Transformation efficiency (vs 5 µg CSP)” value came out at 16 fold decrease and the “Transformation efficiency (vs no CSP)” value was 99 fold increase.

As for SGSLSTFFRLFNRSFTQAGK [CSP peptide analog G1], the “Transformation efficiency (vs 5 µg CSP)” value turned out to be 2 fold decrease and the “Transformation efficiency (vs no CSP)” value turned out to be 848 fold increase.

For the molecule SGSLSTFFRLFNRSFTQALK [CSP peptide analog F1], the “Transformation efficiency (vs 5 µg CSP)” value is 3 fold decrease and the “Transformation efficiency (vs no CSP)” value turned out to be 541 fold increase.

Consider SGSSTFFRLFNRSFTQALGK [CSP peptide analog D1], for which the “Transformation efficiency (vs 5 µg CSP)” value turned out to be 6 fold decrease and the “Transformation efficiency (vs no CSP)” value was determined as 275 fold increase.

As for SGSLTFFRLFNRSFTQALGK [CSP peptide analog E1], the “Transformation efficiency (vs 5 µg CSP)” value was 2 fold decrease and the “Transformation efficiency (vs no CSP)” value stood at 791 fold increase.

With SGSLSTFFRLFNRSFTQALGA [CSP peptide analog G2], the “Transformation efficiency (vs 5 µg CSP)” value was found to be 28 fold decrease and the “Transformation efficiency (vs no CSP)” value came to 56 fold increase.

On to SGSLSTFFRLFNRSFTALGK [CSP peptide analog A2], for which the “Transformation efficiency (vs 5 µg CSP)” value amounted to 7 fold decrease and the “Transformation efficiency (vs no CSP)” value came out at 125 fold increase.
